{
  "source": "the DeepSol protein solubility set",
  "data": [
    {"assay": "soluble on expression in E. coli; label from the status in PepcDB or PDB records", "values": [
      {"sequence": "MLSKRLLNFESFEVMDILALAQKLESEGKKVIHLEIGEPDFNTPKPIVDEGIKSLKEGKTHYTDSRGILELREKISELYKDKYKADIIPDNIIITGGSSLGLFFALSSIIDDGDEVLIQNPCYPCYKNFIRFLGAKPVFCDFTVESLEEALSDKTKAIIINSPSNPLGEVIDREIYEFAYENIPYIISDEIYNGLVYEGKCYSAIEFDENLEKTILINGFSKLYAMTGWRIGYVISNDEIIEAILKLQQNLFISAPTISQYAALKAFEKETEREINSMIKEFDRRRRLVLKYVKDFGWEVNNPIGAYYVFPNIGEDGREFAYKLLKEKFVALTPGIGFGSKGKNYIRISYANSYENIKEGLERIKEFLNK", "soluble on expression in E. coli": "soluble"},
      {"sequence": "MPERDALLTDLVGDRAAEWDTSGELPRDLLVRLGADGLLCAEVAAEHGGLGLGSRENGEFTAHVGSLCSSLRSVMTSQGMAAWTVQRLGDAGQRATFLKELTSGKLAAVGFSERQAGSDLSAMRTRVRLDGDTAVVDGHKVWTTAAAYADHLVVFGLQEDGSGAVVVVPADTPGVRVERVPKPSGCRAAGHADLHLDQVRVPAGAVLAGSGASLPMLVAASLAYGRKSVAWGCVGILRACRTAAVAHARTREQFGRPLGDHQLVAGHIADLWTAEQIAARVCEYASDHWDEGSPEMVPATILAKHVAAERAAAGAATAAQVLASAGAREGHVVERAYRDAKLMEIIEGSSEMCRVMLAQHALALPA", "soluble on expression in E. coli": "soluble"},
      {"sequence": "MREHTLKNGMKLLMVERHTSPTVAAWIRFRVGSVDERSDERGIAHLLEHMLFKGTKTLGTKDYAAEKPLLDKIEETAQALIAEKAKGARADAGRVDELGKKLNALEADAGKYVIKEEFAEIYARNGGAGYNAMTGKDGTTYLINMPSNKLELWAAIEGDRMQNAVLREFYTERDVVMEERRRSYDTEPGSKLWETFVAVTYNAHPYGQPIIGWMSDLENLTRTKAEEFFRRYYKPNNAIVALVGDIDPDKTIALVEKYFGDIPPGTLVGPVAVVEPAQQGERRVEILADAEPELLVGFHKPTLPNPDDYVFDVIDMILADGRTSRLYKKLVVEKQLAAEVSTFSAPGSRYPNLFVLAATPRAPHTAKEVEDAIYEELERLKKEPMTERELAQILNRLEYEESRQMISNGGLARNLTEYEAVTGSWRYLIEHRKEVAKVTPDDVIRVARKYFVRENRTVGVITKKEDVK", "soluble on expression in E. coli": "not soluble"},
      {"sequence": "MFPIASRRILLNASVLPLRLCNRNFTTTRISYNVIQDLYLRELKDTKLAPSTLQDAEGNVKPWNPPQKPNLPELELQGPEALKAYTEQNVETAHVAKESEEGESEPIEEDWLVLDDAEETKESH", "soluble on expression in E. coli": "not soluble"},
      {"sequence": "MAGDPMRLEIAEKYMAEAYEYLKKGDTIQASGKAYKVAEEIVKAIKFLISKLIGQDVGVISPYRTQVRKLDQELANYKPYVEVNTVDAFQGREKDVIIFSVTATNGLRFVTNRRRLNVAFTRPRYKLIVLGNENSIMSCQMTICLEHHHHHH", "soluble on expression in E. coli": "not soluble"},
      {"sequence": "MGLRNENGIVVYPLINGAYRVAASDNYTSNFGLEWNTFQKTQIDKFSGNTVSEERLFAQTNWQKNGLEGETILEVGSGAGRFSQIMLDHTKATLYSVDYSEAVEANYRNNGPHERFKLFQASIYELPFKQASFDRVICLGVLQHTPDFKASVKALVEMVKPGGELVIDFYPIRNVFTKVHGKYLLRPILKRVNHHRLMSLIRNNIDFLISIYTFNRRIGLGVFNRFVPICEIERTLPKGMTPEQLKEWIILDTFDMFSPEYDQPQRLSTVAKWVKEFGMADVDASWVTYHGLEHHHHHH", "soluble on expression in E. coli": "not soluble"},
      {"sequence": "MNTVLIPPGPGGYGKGLWLPVGSGKKVLSLTGREIHPVAIEIGALTQSEVVNGFADIPPDNDILCVVINCAGSLRCGLYPQKGIPTINVLPTWRAGPLAQFITEENYVSGVTMEQLVLVDTAEAPDGKPETTQEPAPRVISTPPSPRGAEKLVRMVEQTGTAVGHVIALLFAASREAVDVSLRN", "soluble on expression in E. coli": "not soluble"},
      {"sequence": "MSIIAINENGFLDKIKGRNPLFTCVISSIETTLSIPISGVHRDVIKYTPSADVELVFYGKSLTLKTPPIDATGSPTPATITRACVELKNIKNLHIDAGAFVKPKIPFIEIDEKPTGRIEEGKAMNNSKELYMKGYLLGKNLDAELLIVGESVPGGTTTALGVLLGLGYDAEGKVSSGSINNPHELKIKVVREGLKKAGINEKSSVFDVLNAVGDKMMPVVAGLAISFAERNKPVILAGGTQMSAVLAVIKEINKKVLDKNLIAIGTTEFVLNDKKGDLKGIVEQIGNVPVLASKFYFEKAKIEGLKNYCKGSVKEGVGAGGIAVYSIVNDLEPTKIREFIENKFYEWYKE", "soluble on expression in E. coli": "soluble"},
      {"sequence": "MGSDKIHHHHHHMTQVDILILSNGPGEVTTWVRPVVRALRQQFGDDRNQVRISVVLSPCSNASGKEAAIALSYPEVDRVQAAEHFWQFLLWGKTIDNWDWRSRGVVVFLGGDQIFPVVIGKKLGYRTVVYAEWEARWHNWIDRFGVMKPEVAARAPHKYAHKFTVVGDLMVEANSHSSLVIGDLSNDKELMTNDIDASTTSHSVGQKTELIGLLPGSKAAKLAQGVPLCLSIAEYVHAKRPQTKFVIPVAPTLDLQTLASFADPQRNSIAEIFGFGGAALIVPEDDRDKALLKTAKGVTVELWQENPAYHLLSQCCICLTTVGANTAELGALGVPMIVLLPTQQLDAMRAWDGLPGLLANLPGVGTPFANTINWLFLRFVRRKGLLAWPNIWAQEEIVPELMGKLQPPEIGEMVVELLAHPEKLADIRAKLRNIRGESGAALKIAQIVCEEMGK", "soluble on expression in E. coli": "not soluble"},
      {"sequence": "MSMPKCEICNDDYSSEDGDHSPRNLKCSHTLCEGCIKKMLGNSKIVCPFCREPTDMPGNKMESLHKNFALIQAIQLFAKTTKITEVEEPMLEKCKHHPDYLVETVCVEEDCSESGKYMCRKCVSTLSHLHHTKKSLIAEMEKSRELLQGRINRLNKTIGEIDQDVRKLRMSQIAFREGGNNYQQKANEITTFYSRIREMVNEREKEALVKLKEVAKSILDENDSALPPLLRSHQKLTEYVRKATEAKKRNNAIACITAAEDLLNKTKDCCDEEYYTIESQDINVCIKPIDIPVATITRK", "soluble on expression in E. coli": "not soluble"},
      {"sequence": "MGSDKIHHHHHHMKYEIVLKGSYALLKVFLSTGESVVVEPGAMVYMKGPIEVKTSATGGVWKALKRAILGGENFFMNTYISRGESEIGLAPQLPGDIDVIPLKDILYVQSTSFLACDPSVEMDVSFGGLKSFFSGEGIFLLKFIGHGDVAVSSFGGIKSVELQPGEEFTVDTGHVVAFDGTVKWNVRTFGGLKSTLFGGEGLVCTFTGPGRVYIQTRNYPAFVEWIKSLVPRQTGSR", "soluble on expression in E. coli": "not soluble"},
      {"sequence": "MGSDKIHHHHHHMTNENELLYSSELQLSALNEAIEATPDNPYLYFKRATYFYNINNFRIAQNDIQKALRMDESVAAYWLLSAQINNELKNVDRAIEEGQKALQLGNAEPILYALLANCLLEKNDTISANQYIGKLTAIAPQMAELKYVQAKKLLIGKDTSHSFLKFRECIQNNPQYIEAYIDLMSLYYKKQMYDSIMPLLIKAKRMRPNNPTLFLYEGKFYETINKNQVALAAYKEGLLCDPQAIELYKPLSDYYGRQGNYKESMYYLSKWIEKNSSDAQSIIKMGNYALKQNDEAGAVTYYKNSLSIDSSNTYLKKEIERIEKHIRYVAQDTTN", "soluble on expression in E. coli": "not soluble"},
      {"sequence": "MAHHHHHHMAVPHGMLISRNDITPDSLVDVPGDRKIVEQISNTMANSSLFKMEKEDHTLANLLRMKLHESPFVQIAGYRVPHPTKHNVELRVQTASNGTDAPVPAPKKALQDAVDGCLKDLEVFEEQLRREAQLKGLEASPS", "soluble on expression in E. coli": "not soluble"},
      {"sequence": "MATVHKVGDSTGWTTLVPYDYAKWASSNKFHVGDSLLFNYNNKFHNVLQVDQEQFKSCNSSSPAASYTSGADSIPLKRPGTFYFLCGIPGHCQLGQKVEIKVDPGSSSA", "soluble on expression in E. coli": "soluble"},
      {"sequence": "MPGERFSHSRCHAIAIKELQRRTENRDGTALHILPKSQRKLAIFLINMDSATKRLTDMNARLDAMGLKAERVAGVNGRELQYPIPEFSEISYMLMHGRRTSPPEIGCYLSHVACANKFMTGDADIALILEDDVVFEDDFLDAIDEAVLNGNDWDILRLTTVSNGRKFAFRALSNGRSLAVALTREKGSGAYLVNRRAGKWISKLIPMRLAYDIAFDLEYLSGLKAAFIYPLCATQDADGESQIQNNLRIYRLPRWRYFTVLPYRAYLETSRFLLRGLRFLVAKAKVAMERGKPKAVQAGRLEHHHHHH", "soluble on expression in E. coli": "soluble"},
      {"sequence": "MGSDKIHHHHHHMNPLAVELNDLLAQHNPHVLEMLSDLGKNLFFPKGILTQSAEAKEKAHKFNATIGIATENGGPMYLQCIQDKLSAFDPKDIYPYAPPAGKPELRSLWREKMLRENPSQQGKHFSNPIVTNALTHGLSIAGDMFLDKGDHLILPDMLWGNYNLTFGTCCGAVIRKYPTFTATGGYDVDAFKAELKNSAEEKGKAVVLLNFPNNPSGYTPTVAEGDALVAAIKEVAEGGCNIVAITDDAYFGLFYEDSLKESLFGKLANLHPRILAVKLDGATKEEFVWGFRTGFITFADGNSYENTPVMTALEKKAMGIIRARISNCPHPSQTFAIEALRSPNFIKQKQEKFQVLKGRALKTKEVLNSGKYDKAWDYYPFNSGYFMCLKLKTVDAEKLRVHMLDKYGVGAISIGKTDLRIAFSCIDEKDIPELFATIHQAVQDLS", "soluble on expression in E. coli": "not soluble"},
      {"sequence": "MTYGIVIVSHSPEIASGLKKLIREVAKNISLTAIGGLENGEIGTSFDRVMNAIEENEADNLLTFFDLGSARMNLDLVSEMTDKELTIFNVPLIEGAYTASALLEAGATFEAIKEQLEKMLIEKRSHHHHHH", "soluble on expression in E. coli": "soluble"},
      {"sequence": "MTQQLVKKGQQISLKIKRLGINGEGIGYYKKLIIFVPGALPKEEVTATITNVTPKFAEGTLQSVKKAAKDRVVPPCPVYETCGGCQLQHLAYKAQLDFKKDLLKQALNKFKPANYQNYELRKTIGMDNPWNYRNKAQFQLRQIDGQVEAGLYQADSHQLVPIDNCLVQQPATTKVMNTLVDLLNDFQLPIYDERKNSGIFRTLMVRVGIQTGEVQVVFITQSQKFPQKEKMVRAINEQLPEVVSIMQNVQNKKTSLVMGDDTLHLWGKESIEEHINDVVFDLSPRAFFQLNPEQTEVLYNEGIKALDLQPNETVVDAYCGVGTIGLSLAKQAHQVRGMDTIPAAIDDARFNAKRLGVTNTHYAVGTAEDLLPKWFKEGFKPDAIVVDPPRTGLDRKLLTALLKQPPKKMVYISCNVSTLARDLVQLAKVYQVDYLQSVDMFPQTARCEVVVKLTRK", "soluble on expression in E. coli": "not soluble"},
      {"sequence": "MAHHHHHHMANGVTANSMRVSVKAPDLGAFPLDHYRECKSEIEEYYTCLRSNDYVTPMCREQVRAYLQCRMDRGLMKPADIEGFGIPETEFVPMRQHRADIRQQWLRQKMNQVTAVWESYRRDDLNVPDGYERPRGSDSGGRPQPLPGETNKT", "soluble on expression in E. coli": "not soluble"},
      {"sequence": "MNKTSKAYQPLLSSKAKIAIIGGGVAGSTIALRFAELGLDTTLIEKGPSLVNGPPICHLHAGGNLYREICDEQCLTLLKQSIDTVKVYPQSVNIRPTVIALPKTDNGQPEDLLPRLEKLRAKYSELVAQDSRNKVLGEPENYFKFYSRTELDALLDLPLPKTAKNDSDWLVAFAQHVDLDSLKFPVLLVQEYGLSAFRFAAIASLAIEGLPSCHLQTNKQVIAIVQQKNSLGWQVSTQALPQHQQSPTIIHQHFDYVINACGFKSGEIDDMVSAKRKRMVEFKAAYVAHWPQCQGLWPEIVFYGERGTPQGMAQLTPYPDGYFQLHGMTQDITLFDQGLVASSLESAQPQLAKRFIEKIDKKWPEQLVHNRTLGSIEHIAQFISAFSSAEVAAKPLFGAQQIPGEDADLRAADVSFYGQHYARAEIVKASSALAAGDAILKNLVDCGLIAALELGRYLTEHYFPVSQQCSEIEVTERAIMLAKQREYPIALAKNLLEHHHHHH", "soluble on expression in E. coli": "soluble"},
      {"sequence": "GNSPQEEVELKKLKHLEKSVEKIADQLEELNKELTGIQQGFLPKDLQAEALCKLDRRVKATIEQFMKILEEIDTLILPENFKDSRLKRKGLVKKVQAFLAECDTVEQNICQETE", "soluble on expression in E. coli": "soluble"},
      {"sequence": "MFMIEVEIFPHRYLKASTTEKFLNKIYDLKTVERVVIHGQPLPKVITYGPARGLPVNHTERKIIHVKGVPVELTVMAGRFWITLSDDSELDKLDEICKEMFPFGYNLRVGKFLKDRPTVTDYIKYGEDGVFLINEMDRRLIGMVDPRSRMANSVTVVEKEEKEELEHHHHHH", "soluble on expression in E. coli": "soluble"}
    ]}
  ]
}
